Molecular target: T1, recombinant human iduronate-2 sulfatase (rhIDS)
T1 chain: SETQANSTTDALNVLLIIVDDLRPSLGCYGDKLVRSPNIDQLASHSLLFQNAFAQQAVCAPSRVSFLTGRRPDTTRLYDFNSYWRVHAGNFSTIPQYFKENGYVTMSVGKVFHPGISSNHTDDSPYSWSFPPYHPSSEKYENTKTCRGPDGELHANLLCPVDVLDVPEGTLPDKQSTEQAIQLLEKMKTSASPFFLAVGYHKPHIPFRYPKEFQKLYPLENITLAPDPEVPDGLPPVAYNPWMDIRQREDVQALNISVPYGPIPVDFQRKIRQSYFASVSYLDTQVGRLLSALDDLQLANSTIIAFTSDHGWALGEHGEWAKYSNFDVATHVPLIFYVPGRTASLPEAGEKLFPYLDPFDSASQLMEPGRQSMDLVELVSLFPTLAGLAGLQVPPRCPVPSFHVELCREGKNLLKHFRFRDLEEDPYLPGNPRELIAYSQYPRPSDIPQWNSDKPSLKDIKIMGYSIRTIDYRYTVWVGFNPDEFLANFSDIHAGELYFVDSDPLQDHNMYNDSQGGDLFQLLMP

B1: Chimeric Lip2pre-BtFGE-HpFGE-6xHis-HDEL fusion construct (protein)
chain: MKLSTILFTACATLAAAAGGEEAGPEAGAPSLVGSCGCGNPQRPGAQGSSAAAHRYSREANAPGSVPGGRPSPPTKMVPIPAGVFTMGTDKAKIYLDGESPSRLVTLDPYYFDVYEVSNSEFELFVNTTSYITEAEKFGDSFVLEARISEEVKKDISQVVAAAPWWLPVKGAEWRHPEGPDSSISSRMDHPVTHISWNDATAYCQWAGKRLPTEAEWENAARGGLNNRLFPWGNKLMPKDHHRVNIWQGEFPKVNTAEDGYEGTCPVTAFEPNGYGLYNTVGNAWEWVADWWTTVHSPESQNNPVGPDEGTDKVKKGGSYMCHISYCYRYRCEARSQNSPDSSACNLGFRCAATNLPEDIPCSNCNDSTPHHHHHHHDEL
% active rhIDS (4MU activity against ELISA); 1 copy rhIDS, 2 copy ChFGE (POX/Hp4d)-20° C.: 0% | % active rhIDS (4MU activity against ELISA); 1 copy rhIDS, 2 copy ChFGE (POX/Hp4d)-28° C.: 0%

B2: Streptomyces coelicolor FGE fusion protein (Lip2pre-ScFGE-6HIS-HDEL) (protein)
chain: MAVAAPSPAAAAEPGPAARPRSTRGQVRLPGGEFAMGDAFGEGYPADGETPVHTVRLRPFHIDETAVTNARFAAFVKATGHVTDAERFGSSAVFHLVVAAPDADVLGSAAGAPWWINVRGAHWRRPEGARSDITGRPNHPVVHVSWNDATAYARWAGKRLPTEAEWEYAARGGLAGRRYAWGDELTPGGRWRCNIWQGRFPHVNTAEDGHLSTAPVKSYRPNGHGLWNTAGNVWEWCSDWFSPTYYAESPTVDPHGPGTGAARVLRGGSYLCHDSYCNRYRVAARSSNTPDSSSGNLGFRCANDADLTSGSAAEHHHHHHHDEL
active rhIDS (4MU fluorogenic activity assay against sandwich ELISA), co-expression in Y. lipolytica: All Y. lipolytica strains co-expressing rFGE with rhIDS resulted in the expression of active rhIDS.

B3: Hemicentrotus pulcherrimus FGE fusion protein (Lip2pre-HpFGE-6HIS-HDEL) (protein)
chain: ENEDINQNISPTQSHTTATTEEELAEARGEEIDSDPTSEGSGAGEGCGCGSSALNRNHDEDALGLALEENLHDHVQEGAALKYSREANDPISMDHPEANVGAFPRTNQMNFIEGGTFRMGTDKAKIYLDGESPSRLVTLDPYYFDVYEVSNSEFELFVNTTSYITEAEKFGDSFVLEARISEEVKKDISQVVAAAPWWLPVKGAEWRHPEGPDSSISSRMDHPVTHISWNDATAYCQWAGKRLPTEAEWENAARGGLNNRLFPWGNKLMPKDHHRVNIWQGEFPKVNTAEDGYEGTCPVTAFEPNGYGLYNTVGNAWEWVADWWTTVHSPESQNNPVGPDEGTDKVKKGGSYMCHISYCYRYRCEARSQNSPDSSACNLGFRCAATNLPEDIPCSNCNDSTPHHHHHHHDEL
% FGly conversion (nano-LC MS); strain T148 (OXYY1801; HpFGE): 8.1% | % FGly conversion (nano-LC MS); strain T148 (OXYY1801; HpFGE) (20° C.): 68.1% | % FGly conversion (nano-LC MS); strain T148 (OXYY1801; HpFGE), duplicate: 3.72% | % FGly conversion-re-analyzed samples; DG29U7#7, OXYY1801; HpFGE: 19.2% | % FGly conversion-re-analyzed samples; DG33U1#6, OXYY1801, HpFGE: 8.3% | % FGly conversion-re-analyzed samples; DG33U3#6, OXYY1801; HpFGE (20° C.): 84.5% | active rhIDS (4MU fluorogenic activity assay against sandwich ELISA), co-expression in Y. lipolytica: All Y. lipolytica strains co-expressing rFGE with rhIDS resulted in the expression of active rhIDS.

B4: Gallus gallus Lip2-GgFGE-His6-HDEL fusion construct (protein)
chain: GKETAPGGNCGCSASRSRGGEREAVATVRRYSAAANDGRSSGRGPMVAIPGGVFTMGTDEPEIQQDGEWPARRVHVNSFYMDQYEVSNQEFERFVNSTGYLTEAEKFGDSFVFEGMLSEEVKAEIHQAVAAAPWWLPVKGANWRQPEGPGSSILSRMDHPVLHVSWNDAVAFCTWAGKRLPTEAEWEYGCRGGLEKRLFPWGNKLQPKGQHYANIWQGVFPTNNTAEDGYKGTAPVTAFPPNGYGLYNIVGNAWEWTSDWWAVHHSADEAHNPKGPSSGTDRVKKGGSYMCHKSYCYRYRCAARSQNTPDSSASNLGFRCAADALPDPQHHHHHHHDEL
% activity of rhIDS; co-expression with GgFGE: 33%

B5: Human FGE fusion protein (Lip2pre-hFGE-HDEL) (protein)
chain: SQEAGTGAGAGSLAGSCGCGTPQRPGAHGSSAAAHRYSREANAPGPVPGERQLAHSKMVPIPAGVFTMGTDDPQIKQDGEAPARRVTIDAFYMDAYEVSNTEFEKFVNSTGYLTEAEKFGDSFVFEGMLSEQVKTNIQQAVAAAPWWLPVKGANWRHPEGPDSTILHRPDHPVLHVSWNDAVAYCTWAGKRLPTEAEWEYSCRGGLHNRLFPWGNKLQPKGQHYANIWQGEFPVTNTGEDGFQGTAPVDAFPPNGYGLYNIVGNAWEWTSDWWTVHHSVEETLNPKGPPSGKDRVKKGGSYMCHRSYCYRYRCAARSQNTPDSSASNLGFRCAADRLPTMDHDEL
active rhIDS (4MU fluorogenic activity assay against sandwich ELISA), co-expression in Y. lipolytica: All Y. lipolytica strains co-expressing rFGE with rhIDS resulted in the expression of active rhIDS.

B6: Columba livia Lip2-C1FGE-His6-HDEL fusion construct (protein)
chain: MVVIPGGVFTMGTDEPAIQQDGEWPVRKVHVNSFYMDRYEVSNEDFERFVNSTGYVTEAEKFGDSFVFEGMLSEEVKAEIHQAVAAAPWWLPVKGANWKHPEGPDSNISNRMDHPVLHVSWNDAVAFCTWAGKRLPTEAEWEYSCRGGLENRLFPWGNKLQPKGQHYANIWQGVFPTNNTAEDGYKGTAPVTAFPPNGYGLYNIVGNAWEWTADWWAVHHSTEEVHNPKGPSSGTDRVKKGGSYMCHKSYCYRYRCAARSQNTPDSSASNLGFRCAADASPELPHHHHHHHDEL
% activity of rhIDS; co-expression with ClFGE: 61%

B7: Lip2pre-6xHis-BtFGE-WBP1 fusion construct (protein)
chain: MKLSTILFTACATLAAAHHHHHHAGGEEAGPEAGAPSLVGSCGCGNPQRPGAQGSSAAAHRYSREANAPGSVPGGRPSPPTKMVPIPAGVFTMGTDDPQIKQDGEAPARRVAIDAFYMDAYEVSNAEFEKFVNSTGYLTEAEKFGDSFVFEGMLSEQVKSDIQQAVAAAPWWLPVKGANWRHPEGPDSTVLHRPDHPVLHVSWNDAVAYCTWAGKRLPTEAEWEYSCRGGLQNRLFPWGNKLQPKGQHYANIWQGEFPVTNTGEDGFRGTAPVDAFPPNGYGLYNIVGNAWEWTSDWWTVHHSAEETINPKGPPSGKDRVKKGGSYMCHKSYCYRYRCAARSQNTPDSSASNLGFRCAADHLPTTGADHLPTTGFTMLNPYYRLTLEQTGTTNFSAIYSTTFKIPDQHGVFTFNLDYKRPGYTFIEEKTRATIRHTANDEWPRSWEITNSWVYLTSAVMVVIAWFLFVVFYLFVGKADKEAVHKQ
% active rhIDS (4MU activity against ELISA); 1 copy rhIDS, 2 copy BtFGE-WBPI (POX/Hp4d): 124%

B8: Monodelphis domestica Lip2-MdFGE-His6-HDEL fusion construct (protein)
chain: AARGLGSEAGSAAADAAHPAGTCGCGSPQRPGTAAHRYSREANVAEPASAERPVLTSQMAHIPAGVFTMGTDEPQIKQDGEGPARRVRINSFYMDLYEVSNAEFERFVNSTGYVTEAEKFGDSFVFDSMLSDQVKSDIHQAVAAAPWWLPVKGANWRHPEGPDSSILHRRDHPVLHVSWNDAVAYCTWAGKRLPTEAEWEYSCRGGLENRLFPWGNKLQPKGQHYANIWQGEFPVSNTGEDGYQGTAPVTAFPPNGYGLYNIVGNAWEWTSDWWTVHHSADETLDPKGPPSGSDRVKKGGSYMCHKSYCYRYRCAARSQNTPDSSASNLGFRCAADRLPDTHHHHHHHDEL
% activity of rhIDS; co-expression with MdFGE: 58%

B9: MNS1-BtFGE-6xHis fusion construct (protein)
chain: MSFNIPKTTPNFSAKARKLEDQLWQASGLEKSKDSTLPLYKDKPYGEGFVARTTSGRRRRNIIYGVVVGLLFWAIYTFSRSLDGNVSLKDGIKDYEFKGWKGRGKPKTNWVAEQNAVKQAFVDSWNGYHKYAWGKDVYKPQTKTGKNMGPKPLGWFIVDSLDSGGEEAGPEAGAPSLVGSCGCGNPQRPGAQGSSAAAHRYSREANAPGSVPGGRPSPPTKMVPIPAGVFTMGTDDPQIKQDGEAPARRVAIDAFYMDAYEVSNAEFEKFVNSTGYLTEAEKFGDSFVFEGMLSEQVKSDIQQAVAAAPWWLPVKGANWRHPEGPDSTVLHRPDHPVLHVSWNDAVAYCTWAGKRLPTEAEWEYSCRGGLQNRLFPWGNKLQPKGQHYANIWQGEFPVTNTGEDGFRGTAPVDAFPPNGYGLYNIVGNAWEWTSDWWTVHHSAEETINPKGPPSGKDRVKKGGSYMCHKSYCYRYRCAARSQNTPDSSASNLGFRCAADHLPTTGADHLPTTGHHHHHH
% FGly conversion; one copy of rhIDS and 2 copies of BtFGE-MNS1: 100% FGly conversion | % active rhIDS (4MU activity against ELISA); 1 copy rhIDS, 2 copy BtFGE-MNS1 (POX/Hp4d): 98% | % activity of rhIDS; one copy of rhIDS and 2 copies of BtFGE-MNS1: 81.5% activity

B10: Tupaia chinensis Lip2-TupFGE-His6-HDEL fusion construct (protein)
chain: EEARTGAGATSAQGPCGCGTPQRPGSHGSSAAAHRYSREANVPGPVPGERQPEATKMVPIPAGVFTMGTDDPQIKQDGEAPARRVAIDAFYMDAYEVSNAEFEKFVNSTGYLTEAEKFGDSFVFEGMLSEQVKTGIQQAVAAAPWWLPVKGANWRHPEGPDSTILHRADHPVLHVSWNDAVAYCTWAGKRLPTEAEWEYSCRGGLQNRLFPWGNKLQPRGQHYANIWQGEFPVTNTAEDGFQGTAPVDAFPPNGYGLYNIVGNAWEWTSDWWTVYHSVEETLNPKGPPSGKDRVKKGGSYMCHKSYCYRYRCAARSQNTPDSSASNLGFRCAADRLPTHHHHHHHDEL
% activity of rhIDS; co-expression with TupFGE: 51%
